{
  "source": "patent US20220154138A1",
  "about": "“METHOD OF PRODUCING PLACENTA-LIKE ORGANOID, PLACENTA-LIKE ORGANOID, AND PRODUCTION OR TEST KIT” (FUJIFILM Corporation, priority 2020, published 2022)",
  "system": "iPS cells",
  "experiment": "Three-dimensional suspension (spinner flask) culture of iPS cells with BMP4, hCG by GONASTICK W",
  "type": "cell-based, human",
  "details": "for hCG production: Example 1, spinner flask",
  "method": "In GONASTICK W, about 0.5 to 1 mL of the culture supernatant was sampled, and a test strip was soaked therein. After the soaking was completed, the determination surface of the test strip was placed to face upward and allowed to stand until the culture supernatant passed through the determination window and reached the reaction end window. […] The detection sensitivity of the present examination reagent is 25 IU/L, and a blue control line corresponding to an hCG concentration of 1,000 IU/L is printed in advance on the determination window, which can be visually compared with the determination line.\nIn a case where a line equal to or more blue-colored than the control line was visually observed on the determination line, it was judged as positive (+).\nIn a case where the line was not visually observed on the determination line, it was determined to be negative (−).\nIn a case where a line that was less blue-colored than the control line but was visible was visually observed on the determination line, it was determined to be (+/−).\n30 mL of an iPS cell medium (StemFit (registered trade name) AK02N: Ajinomoto Co., Inc.) was dispensed into a 30 mL volume spinner flask (ABLE Corporation), and then iPS cells (1.6×10^7 cells/mL) were seeded. BMP4 was not added at the start of culture, but 30 μL of a solution containing 50 μg/mL BMP4 (R&D Systems Inc.) was added on the 4th day of culture so that the final concentration of BMP4 in the medium was to be 50 ng/mL. In a case where BMP4 was added to Example 2 and subsequent Examples, the same concentration was used. After the start of culture, the addition of BMP4 was continued until the 18th day of culture while exchanging half of the medium every 3 to 4 days, and thereafter, only the medium was exchanged without adding BMP4. Cell aggregates (spheroids) were formed by the 4th day of culture (FIG. 1). The stirring culture was continued in a spinner flask throughout the culture period. Although the hCG production was not confirmed until the 11th day of culture, the hCG production was confirmed after the 15th day of culture, and it was confirmed that the hCG production was continued even after the 60th day of culture (Table 2).\n30 mL of an iPS cell medium (StemFit (registered trade name) AK02N: Ajinomoto Co., Inc.) was dispensed into a 30 mL volume spinner flask (ABLE Corporation), and then iPS cells (1.1×10^7 cells/bottle) were seeded. The comparison was carried out between the level 1 in which BMP4 was not added at the start of culture but added on the 4th day of culture and the level 2 in which BMVP was added from the start of culture. BMP4 was added so that the concentration in the medium was 50 ng/mL in both the level 1 and the level 2. After the start of culture, half of the medium was exchanged every 3 to 4 days, and after the 18th day of culture, the medium was exchanged for both the level 1 and the level 2 with a medium to which BMP4 had not been added. By the 4th day of culture, cell aggregates (spheroids) were formed. Regarding the level 1 and the level 2, stirring culture was continued in a spinner flask from the initial stage of culture, and the hCG production was checked. In a case where BMP4 is added from the start of culture (the level 2), the hCG production is started earlier; however, the hCG production also stops earlier. On the other hand, in a case where BMP4 is added after the 4th day of culture (the level 1), the hCG production is slightly delayed; however, it continued for a long time.",
  "data": [
    {"molecule": "BMP4: bone morphogenetic protein BMP4 (R&D Systems Inc.), added to iPS cell medium at 50 ng/mL to induce differentiation (protein, UniProt P12644 293-408, looked up) Bone morphogenetic protein 4: SPKHHSQRARKKNKNCRRHSLYVDFSDVGWNDWIVAPPGYQAFYCHGDCPFPLADHLNSTNHAIVQTLVNSVNSSIPKACCVPTELSAISMLYLDEYDKVVLKNYQEMVVEGCGCR", "values": [
      {"measurement": "hCG production", "setting": "BMP4 50 ng/mL day 4 to 18, day 15", "value": "+ (a line equal to or more blue-colored than the control line was visually observed on the determination line, it was judged as positive (+))"},
      {"measurement": "hCG production", "setting": "BMP4 50 ng/mL day 4 to 18, day 39", "value": "+ (a line equal to or more blue-colored than the control line was visually observed on the determination line, it was judged as positive (+))"},
      {"measurement": "hCG production", "setting": "BMP4 50 ng/mL day 4 to 18, day 53", "value": "+ (a line equal to or more blue-colored than the control line was visually observed on the determination line, it was judged as positive (+))"},
      {"measurement": "hCG production", "setting": "BMP4 50 ng/mL day 4 to 18, day 67", "value": "+ (a line equal to or more blue-colored than the control line was visually observed on the determination line, it was judged as positive (+))"},
      {"measurement": "HCG production", "setting": "level 1: BMP4 50 ng/mL added from day 4, spinner flask, day 8", "value": "− (the line was not visually observed on the determination line, it was determined to be negative (−))"},
      {"measurement": "HCG production", "setting": "level 1: BMP4 added from day 4, day 11", "value": "− (the line was not visually observed on the determination line, it was determined to be negative (−))"},
      {"measurement": "HCG production", "setting": "level 1: BMP4 added from day 4, day 14", "value": "+/− (a line that was less blue-colored than the control line but was visible was visually observed on the determination line, it was determined to be (+/−))"},
      {"measurement": "HCG production", "setting": "level 1: BMP4 added from day 4, day 18", "value": "+ (a line equal to or more blue-colored than the control line was visually observed on the determination line, it was judged as positive (+))"},
      {"measurement": "HCG production", "setting": "level 1: BMP4 added from day 4, day 21", "value": "+ (a line equal to or more blue-colored than the control line was visually observed on the determination line, it was judged as positive (+))"},
      {"measurement": "HCG production", "setting": "level 1: BMP4 added from day 4, day 25", "value": "+ (a line equal to or more blue-colored than the control line was visually observed on the determination line, it was judged as positive (+))"},
      {"measurement": "HCG production", "setting": "level 1: BMP4 added from day 4, day 28", "value": "+ (a line equal to or more blue-colored than the control line was visually observed on the determination line, it was judged as positive (+))"},
      {"measurement": "HCG production", "setting": "level 1: BMP4 added from day 4, day 32", "value": "+ (a line equal to or more blue-colored than the control line was visually observed on the determination line, it was judged as positive (+))"},
      {"measurement": "HCG production", "setting": "level 2: BMP4 50 ng/mL added from start of culture, spinner flask, day 8", "value": "+ (a line equal to or more blue-colored than the control line was visually observed on the determination line, it was judged as positive (+))"},
      {"measurement": "HCG production", "setting": "level 2: BMP4 added from start of culture, day 11", "value": "+ (a line equal to or more blue-colored than the control line was visually observed on the determination line, it was judged as positive (+))"},
      {"measurement": "HCG production", "setting": "level 2: BMP4 added from start of culture, day 14", "value": "+ (a line equal to or more blue-colored than the control line was visually observed on the determination line, it was judged as positive (+))"},
      {"measurement": "HCG production", "setting": "level 2: BMP4 added from start of culture, day 18", "value": "+ (a line equal to or more blue-colored than the control line was visually observed on the determination line, it was judged as positive (+))"},
      {"measurement": "HCG production", "setting": "level 2: BMP4 added from start of culture, day 21", "value": "+ (a line equal to or more blue-colored than the control line was visually observed on the determination line, it was judged as positive (+))"},
      {"measurement": "HCG production", "setting": "level 2: BMP4 added from start of culture, day 25", "value": "+/− (a line that was less blue-colored than the control line but was visible was visually observed on the determination line, it was determined to be (+/−))"},
      {"measurement": "HCG production", "setting": "level 2: BMP4 added from start of culture, day 28", "value": "− (the line was not visually observed on the determination line, it was determined to be negative (−))"},
      {"measurement": "HCG production", "setting": "level 2: BMP4 added from start of culture, day 32", "value": "− (the line was not visually observed on the determination line, it was determined to be negative (−))"}
    ]}
  ]
}
